Laboratory results: the supplement of paper PMC9112550, “Optimization of the antimicrobial peptide Bac7 by deep mutational scanning” (BMC Biology, 2022)

tested on: Escherichia coli TOP10; test: shrunken log2 fold change of peptide-encoding DNA abundance (4.5 h post-induction vs induction); higher = less antimicrobial activity (less host growth inhibition); conditions: time post-induction: 4.5 h; library: site-saturation at positions 5, 18, 19, 20
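Also: peptides expressed intracellularly from a pBAD plasmid library in pooled LB shake-flask culture, induced with 0.3% L-arabinose, DNA abundance read by NGS, three biological replicates, DESeq2 with apeglm shrinkage.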

| Sequence | shrunken log2 fold change |
| --- | --- |
| RRIRLRPPRLPRPRPRPGESPRP | 0.0313 |
| RRIRLRPPRLPRPRPRPGGLPRP | 0.097 |
| RRIRLRPPRLPRPRPRPGGPPRP | 1.36 |
| RRIRLRPPRLPRPRPRPGHCPRP | 0.0372 |
| RRIRLRPPRLPRPRPRPGHGPRP | -0.00133 |
| RRIRLRPPRLPRPRPRPGHHPRP | -0.2 |
| RRIRLRPPRLPRPRPRPGHQPRP | 0.122 |
| RRIRLRPPRLPRPRPRPGHSPRP | -0.0313 |
| RRIRLRPPRLPRPRPRPGHVPRP | 0.0522 |
| RRIRLRPPRLPRPRPRPGKRPRP | 0.364 |
| RRIRLRPPRLPRPRPRPGKSPRP | -0.047 |
| RRIRLRPPRLPRPRPRPGLEPRP | 0.11 |
| RRIRLRPPRLPRPRPRPGMSPRP | 0.0159 |
| RRIRLRPPRLPRPRPRPGNEPRP | -0.0032 |
| RRIRLRPPRLPRPRPRPGPQPRP | 0.228 |
| RRIRLRPPRLPRPRPRPGPWPRP | 0.325 |
| RRIRLRPPRLPRPRPRPGRKPRP | 0.0459 |
| RRIRLRPPRLPRPRPRPGRQPRP | 0.207 |
| RRIRLRPPRLPRPRPRPGSLPRP | -0.0743 |
| RRIRLRPPRLPRPRPRPGSNPRP | -0.57 |
| RRIRLRPPRLPRPRPRPGSWPRP | 0.18 |
| RRIRLRPPRLPRPRPRPGTDPRP | -0.151 |
| RRIRLRPPRLPRPRPRPGTFPRP | 0.0118 |
| RRIRLRPPRLPRPRPRPGVQPRP | 0.0642 |
| RRIRLRPPRLPRPRPRPGWNPRP | 0.000784 |

| Sequence | shrunken log2 fold change |
| --- | --- |
| RRIRLRPPRLPRPRPRPGYDPRP | -0.233 |
| RRIRLRPPRLPRPRPRPHAEPRP | -0.203 |
| RRIRLRPPRLPRPRPRPHAPPRP | 0.304 |
| RRIRLRPPRLPRPRPRPHCEPRP | -0.00711 |
| RRIRLRPPRLPRPRPRPHCFPRP | -0.0782 |
| RRIRLRPPRLPRPRPRPHCSPRP | -0.747 |
| RRIRLRPPRLPRPRPRPHDTPRP | -0.18 |
| RRIRLRPPRLPRPRPRPHEEPRP | 0.13 |
| RRIRLRPPRLPRPRPRPHEHPRP | -0.109 |
| RRIRLRPPRLPRPRPRPHEYPRP | -0.0491 |
| RRIRLRPPRLPRPRPRPHGAPRP | 0.0606 |
| RRIRLRPPRLPRPRPRPHGDPRP | -0.0331 |
| RRIRLRPPRLPRPRPRPHGEPRP | 0.191 |
| RRIRLRPPRLPRPRPRPHGKPRP | -0.191 |
| RRIRLRPPRLPRPRPRPHGNPRP | -0.186 |
| RRIRLRPPRLPRPRPRPHGYPRP | -0.528 |
| RRIRLRPPRLPRPRPRPHHFPRP | -0.128 |
| RRIRLRPPRLPRPRPRPHHLPRP | -0.24 |
| RRIRLRPPRLPRPRPRPHHQPRP | -0.162 |
| RRIRLRPPRLPRPRPRPHLYPRP | 0.61 |
| RRIRLRPPRLPRPRPRPHMDPRP | -0.549 |
| RRIRLRPPRLPRPRPRPHMPPRP | -0.222 |
| RRIRLRPPRLPRPRPRPHPTPRP | -0.094 |
| RRIRLRPPRLPRPRPRPHRIPRP | -0.0339 |
| RRIRLRPPRLPRPRPRPHRWPRP | -0.0172 |

| Sequence | shrunken log2 fold change |
| --- | --- |
| RRIRLRPPRLPRPRPRPHSEPRP | -0.431 |
| RRIRLRPPRLPRPRPRPHSKPRP | -0.129 |
| RRIRLRPPRLPRPRPRPHSSPRP | 0.0594 |
| RRIRLRPPRLPRPRPRPIAIPRP | 0.12 |
| RRIRLRPPRLPRPRPRPIARPRP | -0.0553 |
| RRIRLRPPRLPRPRPRPICTPRP | -0.243 |
| RRIRLRPPRLPRPRPRPIDCPRP | -0.00194 |
| RRIRLRPPRLPRPRPRPIDPPRP | -0.379 |
| RRIRLRPPRLPRPRPRPIDSPRP | -0.0384 |
| RRIRLRPPRLPRPRPRPIFEPRP | -0.0366 |
| RRIRLRPPRLPRPRPRPIGEPRP | -0.169 |
| RRIRLRPPRLPRPRPRPIHGPRP | -0.0797 |
| RRIRLRPPRLPRPRPRPIHHPRP | -0.246 |
| RRIRLRPPRLPRPRPRPIIGPRP | -0.0425 |
| RRIRLRPPRLPRPRPRPIINPRP | -0.448 |
| RRIRLRPPRLPRPRPRPIKWPRP | -0.412 |
| RRIRLRPPRLPRPRPRPIMSPRP | -0.2 |
| RRIRLRPPRLPRPRPRPIMWPRP | -0.0155 |
| RRIRLRPPRLPRPRPRPINLPRP | -0.573 |
| RRIRLRPPRLPRPRPRPINTPRP | -0.881 |
| RRIRLRPPRLPRPRPRPIPAPRP | -0.112 |
| RRIRLRPPRLPRPRPRPISVPRP | -0.343 |
| RRIRLRPPRLPRPRPRPITGPRP | -0.0243 |
| RRIRLRPPRLPRPRPRPITMPRP | -0.168 |
| RRIRLRPPRLPRPRPRPIVRPRP | -0.151 |

| Sequence | shrunken log2 fold change |
| --- | --- |
| RRIRLRPPRLPRPRPRPIYIPRP | -1.1 |
| RRIRLRPPRLPRPRPRPKCLPRP | 0.117 |
| RRIRLRPPRLPRPRPRPKEFPRP | -0.0126 |
| RRIRLRPPRLPRPRPRPKEMPRP | 0.0765 |
| RRIRLRPPRLPRPRPRPKFAPRP | 0.293 |
| RRIRLRPPRLPRPRPRPKFVPRP | -0.055 |
| RRIRLRPPRLPRPRPRPKGGPRP | 0.01 |
| RRIRLRPPRLPRPRPRPKGIPRP | -0.0776 |
| RRIRLRPPRLPRPRPRPKHQPRP | 0.125 |
| RRIRLRPPRLPRPRPRPKIFPRP | -0.0395 |
| RRIRLRPPRLPRPRPRPKIMPRP | -0.314 |
| RRIRLRPPRLPRPRPRPKLRPRP | -0.00715 |
| RRIRLRPPRLPRPRPRPKNKPRP | -0.291 |
| RRIRLRPPRLPRPRPRPKPFPRP | 2.21 |
| RRIRLRPPRLPRPRPRPKPTPRP | 0.15 |
| RRIRLRPPRLPRPRPRPKQPPRP | 0.119 |
| RRIRLRPPRLPRPRPRPKSAPRP | 0.139 |
| RRIRLRPPRLPRPRPRPKSDPRP | 0.00855 |
| RRIRLRPPRLPRPRPRPKSFPRP | -0.0686 |
| RRIRLRPPRLPRPRPRPKSKPRP | -0.071 |
| RRIRLRPPRLPRPRPRPKSTPRP | -0.222 |
| RRIRLRPPRLPRPRPRPKTHPRP | -0.0161 |
| RRIRLRPPRLPRPRPRPKTVPRP | -0.0699 |
| RRIRLRPPRLPRPRPRPKVFPRP | 0.0303 |
| RRIRLRPPRLPRPRPRPKVIPRP | -0.185 |

| Sequence | shrunken log2 fold change |
| --- | --- |
| RRIRLRPPRLPRPRPRPLAQPRP | 0.73 |
| RRIRLRPPRLPRPRPRPLCLPRP | -0.392 |
| RRIRLRPPRLPRPRPRPLENPRP | 0.0938 |
| RRIRLRPPRLPRPRPRPLFAPRP | 0.233 |
| RRIRLRPPRLPRPRPRPLFKPRP | -0.188 |
| RRIRLRPPRLPRPRPRPLFLPRP | -0.551 |
| RRIRLRPPRLPRPRPRPLFNPRP | -0.468 |
| RRIRLRPPRLPRPRPRPLFYPRP | -0.238 |
| RRIRLRPPRLPRPRPRPLGLPRP | -0.253 |
| RRIRLRPPRLPRPRPRPLIWPRP | 0.0251 |
| RRIRLRPPRLPRPRPRPLKCPRP | -0.0489 |
| RRIRLRPPRLPRPRPRPLLNPRP | -0.468 |
| RRIRLRPPRLPRPRPRPLPTPRP | 0.293 |
| RRIRLRPPRLPRPRPRPLRNPRP | 0.737 |
| RRIRLRPPRLPRPRPRPLTCPRP | -0.0184 |
| RRIRLRPPRLPRPRPRPLTRPRP | 1.93 |
| RRIRLRPPRLPRPRPRPLVMPRP | -0.0627 |
| RRIRLRPPRLPRPRPRPLVWPRP | 0.193 |
| RRIRLRPPRLPRPRPRPLWGPRP | 0.151 |
| RRIRLRPPRLPRPRPRPLWVPRP | 0.0349 |
| RRIRLRPPRLPRPRPRPLYNPRP | -0.305 |
| RRIRLRPPRLPRPRPRPLYQPRP | -0.833 |
| RRIRLRPPRLPRPRPRPMAFPRP | -0.127 |
| RRIRLRPPRLPRPRPRPMCIPRP | -0.125 |
| RRIRLRPPRLPRPRPRPMDTPRP | -0.323 |

| Sequence | shrunken log2 fold change |
| --- | --- |
| RRIRLRPPRLPRPRPRPMFHPRP | -0.681 |
| RRIRLRPPRLPRPRPRPMFLPRP | -0.0362 |
| RRIRLRPPRLPRPRPRPMFRPRP | -0.162 |
| RRIRLRPPRLPRPRPRPMHKPRP | -0.449 |
| RRIRLRPPRLPRPRPRPMITPRP | -0.07 |
| RRIRLRPPRLPRPRPRPMKDPRP | -0.111 |
| RRIRLRPPRLPRPRPRPMMQPRP | -0.223 |
| RRIRLRPPRLPRPRPRPMQWPRP | 0.0515 |
| RRIRLRPPRLPRPRPRPMSEPRP | -0.0383 |
| RRIRLRPPRLPRPRPRPMSMPRP | 0.125 |
| RRIRLRPPRLPRPRPRPMVIPRP | 0.036 |
| RRIRLRPPRLPRPRPRPMWHPRP | 0.203 |
| RRIRLRPPRLPRPRPRPMYLPRP | 0.0092 |
| RRIRLRPPRLPRPRPRPMYQPRP | -0.29 |
| RRIRLRPPRLPRPRPRPMYYPRP | -0.0423 |
| RRIRLRPPRLPRPRPRPNCEPRP | -0.0439 |
| RRIRLRPPRLPRPRPRPNDYPRP | -0.582 |
| RRIRLRPPRLPRPRPRPNGCPRP | 0.00888 |
| RRIRLRPPRLPRPRPRPNGPPRP | -0.146 |
| RRIRLRPPRLPRPRPRPNIKPRP | -0.321 |
| RRIRLRPPRLPRPRPRPNISPRP | -0.373 |
| RRIRLRPPRLPRPRPRPNIYPRP | -0.585 |
| RRIRLRPPRLPRPRPRPNKQPRP | -0.0903 |
| RRIRLRPPRLPRPRPRPNMSPRP | -0.129 |
| RRIRLRPPRLPRPRPRPNNKPRP | -0.357 |
